Test results from patent US20200206312A1 (EISAI, published 2020).

What was measured:
[1] = biological target: T1, Recombinant human NRP1 with His Tag (Sino Biological Inc.; Cat #1001-H08H) (human, UniProt O14786-2 22-644); test: BLI (Octet Red96), biotinylated VEGF165 on streptavidin sensor, NRP1 in solution; value 5 of 6 in the cell
T1 construct: also called Neuropilin 1
T1 sequence (looked up): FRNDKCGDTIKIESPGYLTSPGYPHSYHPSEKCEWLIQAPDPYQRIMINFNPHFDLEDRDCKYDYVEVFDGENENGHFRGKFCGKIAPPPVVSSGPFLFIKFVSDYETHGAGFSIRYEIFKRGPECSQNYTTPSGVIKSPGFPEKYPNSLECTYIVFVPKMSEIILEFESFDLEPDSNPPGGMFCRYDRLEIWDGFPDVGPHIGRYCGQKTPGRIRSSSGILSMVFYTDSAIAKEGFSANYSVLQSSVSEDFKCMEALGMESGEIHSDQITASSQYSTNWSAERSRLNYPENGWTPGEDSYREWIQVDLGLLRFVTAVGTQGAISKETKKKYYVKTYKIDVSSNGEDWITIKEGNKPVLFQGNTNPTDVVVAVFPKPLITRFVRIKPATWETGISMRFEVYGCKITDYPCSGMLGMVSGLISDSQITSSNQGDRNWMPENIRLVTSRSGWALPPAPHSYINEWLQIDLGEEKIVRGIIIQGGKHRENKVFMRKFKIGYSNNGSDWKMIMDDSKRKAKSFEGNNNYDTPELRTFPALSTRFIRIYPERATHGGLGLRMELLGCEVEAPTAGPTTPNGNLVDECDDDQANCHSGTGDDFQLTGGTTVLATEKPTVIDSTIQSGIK

[2] = biological target: T1, Recombinant human NRP1 with His Tag …; test: BLI (Octet Red96), biotinylated VEGF165 on streptavidin sensor, NRP1 in solution
[3] = biological target: T1, Recombinant human NRP1 with His Tag …; test: BLI (Octet Red96), biotinylated VEGF165 on streptavidin sensor, NRP1 in solution; value 4 of 6 in the cell
[4] = biological target: T1, Recombinant human NRP1 with His Tag …; test: BLI (Octet Red96), biotinylated VEGF165 on streptavidin sensor, NRP1 in solution; value 3 of 6 in the cell
[5] = biological target: T1, Recombinant human NRP1 with His Tag …; test: BLI (Octet Red96), biotinylated VEGF165 on streptavidin sensor, NRP1 in solution; value 2 of 6 in the cell
[6] = biological target: T1, Recombinant human NRP1 with His Tag …; test: BLI (Octet Red96), biotinylated VEGF165 on streptavidin sensor, NRP1 in solution; value 6 of 6 in the cell
[7] = biological target: T1, Recombinant human NRP1 with His Tag …; test: BLI (Octet Red96), biotinylated VEGF165 on streptavidin sensor, NRP1 in solution; value 1 of 6 in the cell

B1: Biotinylated recombinant Human VEGF165 (ACRO Biosystems; Cat # VE5-H8210) (ligand, UniProt P15692-4 27-191, looked up)
chain: APMAEGGGQNHHEVVKFMDVYQRSYCHPIETLVDIFQEYPDEIEYIFKPSCVPLMRCGGCCNDEGLECVPTEESNITMQIMRIKPHQGQHIGEMSFLQHNKCECRPKKDRARQENPCGPCSERRKHLFVQDPQTCKCSCKNTDSRCKARQLELNERTCRCDKPRR
notes: also called biotinylated VEGF
- Kd [1]: 18 nM
- Kd [2]: 40 to 98 nM
- Kd [3]: 98 nM
- Kd [4]: 75 nM
- Kd [5]: 26 nM
- Kd [6]: 26 nM
- Kd [7]: 43 nM
